Measurements reported in the supplement of paper PMC9170038.

System: MS2 coat protein
Assay: apparent KD of MS2 coat protein; designed switch direction (-1 OFF switch, 1 ON switch): 1; higher = weaker reporter binding
Summary of the method: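 Designed RNA switches with common flanks were transcribed on Illumina chips by stalled E. coli RNA polymerase and titrated with SNAP-549-labelled MS2 coat protein, from 0.7 or 1.5 nM doubling to 3 µM, in Tris-HCl pH 7.5 buffer with KCl, MgCl2, BSA, DTT, tRNA and Tween-20. Steps lasted 0.8–1.5 h (lowest) to 10–20 min (highest). Titrations ran without input, with 200 uM small-molecule ligand, or with an oligonucleotide input. Normalised cluster fluorescence was curve-fitted, and apparent KD is the per-design median over clusters.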

[1] = input ligand: microRNA oligo, concentration not stated
[2] = Eterna round: R95, input ligand: FMN 200 uM
[3] = Eterna round: R95, input ligand: microRNA oligo, concentration not stated
[4] = Eterna round: R95, input ligand: none

| Sequence | apparent KD of MS2 coat protein (input ligand: FMN 200 uM) [µM] | apparent KD of MS2 coat protein [1] [µM] | apparent KD of MS2 coat protein (input ligand: none) [µM] | apparent KD of MS2 coat protein [2] [µM] | apparent KD of MS2 coat protein [3] [µM] | apparent KD of MS2 coat protein [4] [µM] |
| --- | --- | --- | --- | --- | --- | --- |
| AUUAAGAGCGUAGGAUAUGGGAAAGGAAGUGUACCAGAAGGACGAAUACAGCGUCCGGACAUGAGGAUCACCCAUGUAGGACGG [PowerStrip SSNG 1.18] (Eterna round: R96, puzzle: Same State NG 1) | 0.0104 | 0.0239 | 0.0562 |  |  |  |
| GUAGCAUACCGAGGAUAUUCAUACAUGAGGAUCACCCAUGUUAUUAUAGGACGAUUACGUCCUUGGGAGAAGGCGGAAUGCUAC [Xeonanis - 20 Mod29] (Eterna round: R96, puzzle: Same State NG 2) | 0.0102 | 0.0118 | 0.0151 |  |  |  |
| UGUUGUAUUACAGGAUAUCUAGUAUUUUUAUUAAGAGAAGGGUAUUCACAUGAGGAUCACCCAUGUAUAUACGAGGAAGUUGUG [JMF's solution 54] (Eterna round: R96, puzzle: Same State NG 1) |  | 0.0337 |  |  |  |  |
| GUAGCAUACCGAGGAUAUUCAUAUUAACAUGAGGAUCACCCAUGUUUUUAGGCCAAAAGGCCUUGGGAGAAGGCGGAAUGCUAC [Xeonanis - 20 Mod6] (Eterna round: R96, puzzle: Same State NG 2) | 0.0114 | 0.0128 | 0.0161 |  |  |  |
| GGGCCAGCUUUUGCUGGGCCUUCGCUUGCACAUGAGGAUCACCCAUGUCGUGUACACGCUUCCUGCCCGUCUUUUUU [Photon Torp-18] (puzzle: Sensor for hsa-mir-208a) |  |  |  | 0.0212 | 0.0136 | 0.0218 |
| GAGUAGGAGUUACAGGAUAUAUGGAGGUGGACAUGAGGAUCACCCAUGUGAGAGAUGAGAGGAGGAUAGAAGGGUAAGGGAGUAA [JR_SS2_Sub029] (puzzle: Same State 2) |  |  |  | 0.189 | 0.153 | 0.486 |
| AGUCUACGGUGACGUAGACAGUAGUGCGUACAUGAGGAUCACCCAUGUCAUGUAAGAGUUACUUGUUCGUCUUGAAC [SENSOR #3] (puzzle: Sensor for hsa-mir-208a) |  |  |  | 0.0204 | 0.0169 | 0.0202 |
| AUUGCUUACGCAGGAUAUGAUGUGGAAACUGCGUCAGAAGGGUGAACAGUAUCGUUGCAAGAGGACAUGAGGAUCACCCAUGUC [SameState NG1 #98] (Eterna round: R96, puzzle: Same State NG 1) | 0.0279 | 0.0206 | 0.0314 |  |  |  |
| GGUGGGUUGCUGCCGGCACAUGAGGAUCACCCAUGUUUUGGGAAGGAUAUGGUACCUCUUUGGUGCCAGAAGGUCCCGUUGGUG [salish99_SSNG3_r04_713] (Eterna round: R96, puzzle: Same State NG 3) | 2.02 | 0.503 | 1.74 |  |  |  |
| AAAGCAAUGGUACAGGAUAUGUACGGUCGUACAUGAGGAUCACCCAUGUCGCUGGAAAGGUAGAUACAGAAGGGUGCCCAUGCGU [Riintile] (puzzle: Same State 2) |  |  |  | 0.0344 | 0.161 | 0.21 |
| GGAGGACAUGAGGAUCACCCAUGUGGAUGAUCGCUAGGAUAUGCGUAAAGGAGGAGUGGUGCAGAAGGAGUGGGAU [JR_SS1_Sub050] (puzzle: Same State 1) |  |  |  |  | 0.261 |  |
| GGAGCCAAGGCAGGAUAUUCAUAUUAAUAACACAUGAGGAUCACCCAUGUGGCCAGAAGGCCAAGGGAGAAGGGCCAUGGCUCG [Xeonanis - 13 mod11] (Eterna round: R96, puzzle: Same State NG 2) | 0.0221 | 0.0654 | 0.159 |  |  |  |
| GGAAUAUUUACAGGAUAUGAGUUGUAAAGUCGAUCAGAAGGGUAGGUGUCUUGCACGGUGUGUUACAUGAGGAUCACCCAUGUU [SameState NG1 #21] (Eterna round: R96, puzzle: Same State NG 1) | 0.156 | 0.116 | 0.128 |  |  |  |
| UGAAUGAUGAUAGGAUAUACAUGAGGAAUCCUCGUAGAAGGAUCAUGACAUGAGGAUCACCCAUGUAGCGCUCCGUAGAGCGCA [JL SSNG1 1.20] (Eterna round: R96, puzzle: Same State NG 1) | 0.561 | 0.0307 | 0.151 |  |  |  |
| AAAGCCCGUGCUAAGGAUAUGCGUACUCCUACAUGAGGAUCACCCAUGUCCCGCCGAAAAGGAAGGCAGAAGGUAGCACGAGCAA [Teerarti] (puzzle: Same State 2) |  |  |  | 0.0537 | 0.0965 | 0.102 |
| UAGCAGUGCGGGUAGGAUAUGUAGGGUGGUACAUGAGGAUCACCCAUGUAUCCACCCUUCGACCGGCAGAAGGGCCUGUCACUGC [Edor] (Eterna round: R96, puzzle: Same State 2) |  | 0.0132 |  |  |  |  |
